Assay results from paper PMC1868780, “Short RNA Guides Cleavage by Eukaryotic RNase III”.

Target: T1, Rnt1p (yeast RNase III) (Saccharomyces cerevisiae, UniProt Q02555 1-471)
T1 sequence: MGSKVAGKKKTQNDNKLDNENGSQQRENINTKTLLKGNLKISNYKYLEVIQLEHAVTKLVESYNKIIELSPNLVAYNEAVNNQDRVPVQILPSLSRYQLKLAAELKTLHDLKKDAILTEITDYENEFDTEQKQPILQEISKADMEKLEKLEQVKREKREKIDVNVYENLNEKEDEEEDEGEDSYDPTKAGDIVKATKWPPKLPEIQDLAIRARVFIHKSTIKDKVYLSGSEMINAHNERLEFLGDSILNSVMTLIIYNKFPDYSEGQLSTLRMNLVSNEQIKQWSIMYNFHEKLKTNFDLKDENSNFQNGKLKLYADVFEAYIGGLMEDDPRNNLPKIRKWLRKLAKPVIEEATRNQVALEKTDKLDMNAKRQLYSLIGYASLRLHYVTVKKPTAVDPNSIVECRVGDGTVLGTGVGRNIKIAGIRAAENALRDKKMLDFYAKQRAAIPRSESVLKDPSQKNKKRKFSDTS
Experiment: EMSA; apparent K'd; Protein EMSA as in cited ref 12 (buffer not given): 3 fmol 5'-labeled RNA, Rnt1p 0.25-6 uM; trans reactions with 2 pmol cold target
Conditions: protein: recombinant; chain copies: 2; label: 5'-32P; hairpin

B1: 3'-Branch (structured_RNA)
RNA: GCUUGAAGAGGAUGAGUCCAUCCCCAAAACAUUAGCUUGAAAAAGCUAAUGUUUUGGAAUCUUCAAGAUUAUGG
Kd: 750 nM
